To fix the notation:
T1: Recombinant human LAG-3 ECD-His6 (human, UniProt P18627 23-433)
T1 construct: also called LAG-3-His; recombinant human LAG-3-His
T1 sequence: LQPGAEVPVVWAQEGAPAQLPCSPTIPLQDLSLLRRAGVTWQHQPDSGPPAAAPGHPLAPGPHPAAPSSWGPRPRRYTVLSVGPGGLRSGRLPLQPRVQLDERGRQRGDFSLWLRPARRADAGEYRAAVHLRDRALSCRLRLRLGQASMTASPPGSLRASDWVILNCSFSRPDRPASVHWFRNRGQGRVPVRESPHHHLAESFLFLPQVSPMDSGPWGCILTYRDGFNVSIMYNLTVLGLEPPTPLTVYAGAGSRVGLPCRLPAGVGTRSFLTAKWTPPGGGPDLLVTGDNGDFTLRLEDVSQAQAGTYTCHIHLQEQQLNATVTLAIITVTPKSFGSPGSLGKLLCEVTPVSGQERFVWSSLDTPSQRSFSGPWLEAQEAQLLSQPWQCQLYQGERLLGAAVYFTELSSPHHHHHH

T2: Human LAG-3 on cells (human LAG-3 expressing EL4 cells; activated human CD3+ T cells) (human, UniProt P18627 23-525)
T2 construct: whole, on cells; also called LAG-3 positive T cells
T2 sequence (looked up): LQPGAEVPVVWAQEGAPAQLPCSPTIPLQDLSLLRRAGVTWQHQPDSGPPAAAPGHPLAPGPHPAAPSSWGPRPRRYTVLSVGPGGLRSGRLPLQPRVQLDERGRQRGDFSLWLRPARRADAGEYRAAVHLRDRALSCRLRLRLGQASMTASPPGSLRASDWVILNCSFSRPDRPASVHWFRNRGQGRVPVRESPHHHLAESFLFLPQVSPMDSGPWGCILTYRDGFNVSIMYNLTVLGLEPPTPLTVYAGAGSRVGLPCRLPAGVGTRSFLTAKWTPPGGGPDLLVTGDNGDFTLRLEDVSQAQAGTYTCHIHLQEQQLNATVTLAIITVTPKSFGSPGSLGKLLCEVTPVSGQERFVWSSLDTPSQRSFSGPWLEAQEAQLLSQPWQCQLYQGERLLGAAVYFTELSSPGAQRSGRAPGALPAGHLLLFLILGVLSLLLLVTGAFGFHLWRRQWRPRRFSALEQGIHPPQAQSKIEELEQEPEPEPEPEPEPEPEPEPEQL

B1: H5L7BW (antibody, human IgG1, kappa)
heavy: not shown
light: DIQMTQSPSSLSASVGDRVTITCKSSQSLLNPSNQKNYLAWYQQKPGKAPKLLVYFASTRDSGVPSRFSGSGSGTDFTLTISSLQPEDFATYYCLQHFGTPPTFGQGTKLEIKRTVAAPSVFIFPPSDEQLKSGTASVVCLLNNFYPREAKVQWKVDNALQSGNSQESVTEQDSKDSTYSLSSTLTLSKADYEKHKVYACEVTHQGLSSPVTKSFNRGEC
modifications: afucosylated: no fucose on the core carbohydrate structure attached to Asn297
notes: Same plasmids as H5L7, expressed in the BioWa POTELLIGENT (FUT8 knock-out CHO) cell line; also called afucosylated antibody H5L7BW; afucosylated H5L7
B2: H5L7 (antibody, human IgG1, kappa)
heavy: not shown
light: B1 light
notes: Humanised IgG1/kappa of A9H12 (IMP731); also called fucosylated H5L7; non-ADCC enhanced variant H5L7
B3: IMP731 (antibody, human IgG1, kappa)
heavy: not shown
light: DIVMTQSPSSLAVSVGQKVTMSCKSSQSLLNGSNQKNYLAWYQQKPGQSPKLLVYFASTRDSGVPDRFIGSGSGTDFTLTISSVQAEDLADYFCLQHFGTPPTFGGGTKLEIKRTVAAPSVFIFPPSDEQLKSGTASVVCLLNNFYPREAKVQWKVDNALQSGNSQESVTEQDSKDSTYSLSSTLTLSKADYEKHKVYACEVTHQGLSSPVTKSFNRGEC
notes: Chimeric (murine variable domains, human IgG1/kappa constant regions); also called A9H12; chimeric antibody IMP731

One assay concerns the target T1, Recombinant human LAG-3 ECD-His6. The experiment in a line: SPR Biacore T100, antibody captured on Protein A, LAG-3 ECD-His6 analyte, 1:1 model, 25 C, geometric mean of 3 runs. On the procedure:
(§1) Wild type fucosylated and afucosylated antibodies were compared for their ability to bind to recombinant human LAG-3 ECD with a C-terminal His6 (SEQ ID NO:51) using the Biacore™ T100 (GE Healthcare™). Protein A was immobilised on a CM5 chip by primary amine coupling. This surface was then used to capture the humanised antibodies. Recombinant human LAG-3 ECD-His6 was then passed over the captured antibodies at 32, 8, 2, 0.5 and 0.125 nM and regeneration was carried out using 50 mM NaOH. The binding curves were double referenced with buffer injection (i.e. 0 nM) and the data was fitted to the T100 analysis software using the 1:1 model. The run was carried out at 25° C., using HBS-EP as the running buffer.
(§2) In order to investigate the statistical significance of this kinetic data, this experiment was repeated 3 times with the same batch of the four antibodies and the chimeric control. KD, ka and kd parameters were each log (base 10) transformed prior to separate statistical analyses. For each parameter, a mixed model analysis of variance CAnova′) was performed on transformed data, including terms for Run (random block effect) and Antibody.
On the technique in general: In SPR one partner is held on a chip, and binding of the other changes the refractive index at the surface.
As to B1, the koff turned out to be 0.00441 s⁻¹.
On the same count and under the same terms, the figure for B2 is 0.00395 s⁻¹.
The same measure, in the same setting: with B3 the figure was 0.0275 s⁻¹.

For the next assay the target is unchanged. The experiment in a line: SPR Biacore T100, antibody captured on Protein A, LAG-3 ECD-His6 analyte, 1:1 model, 25 C, geometric mean of 3 runs (table head says nM; value is in M by paragraph 194). On the procedure: as §1, §2
Turning to B1, the Kd is 0.218 nM.
For the molecule B2, the Kd was 0.208 nM.
On the same count and under the same terms, with B3 the figure was 2.76 nM.

The next assay deals with T2, Human LAG-3 on cells (human LAG-3 …). Put plainly: flow cytometry (MFI), Alexa647-conjugated antibody titrated on activated human CD3+ T cells; direct binding curve, half-maximal value labelled IC50 in the table under the graph; unit taken from the concentration axis. On the procedure:
CD3⁺ T cells were prepared from PBMCs by negative selection using Untouched Human T cell Dynal beads. CD3⁺ T cells were activated by incubation with immobilised anti-CD3 and anti-CD28 and soluble recombinant human IL-12 for 3 days at 37° C. Activated cells were incubated with Alexa 647-conjugated antibodies of varying concentrations up to 3 μg/ml for 30 minutes at room temperature. Cells were washed with FACS buffer (PBS+0.5% BSA).
(§3) EL4 cells and CD3⁺ T cells were analysed by FACS using a Beckman Coulter FC 500 flow cytometer. FACS raw data were analysed using CXP Analysis software (Beckman Coulter). The data was initially plotted on a forward-scatter versus side-scatter plot and the population of cells of interest were gated. This gated population was then plotted as a histogram displaying fluorescence intensity and the mean fluorescence intensity (MFI) calculated. MFI values were then plotted in GraphPad Prism 5 software to generate dose response curves.
B1 came in with an IC50 of 3.07 ng/mL.
Take B2: the IC50 turned out to be 3.06 ng/mL.
Same read-out and setting: with B3 the figure was 2.14 ng/mL.

Another assay has the same target. The experiment in a line: flow cytometry (MFI), Alexa647-conjugated antibody titrated on human LAG-3 expressing EL4 cells; direct binding curve, half-maximal value labelled IC50 in the table under the graph; unit taken from the concentration axis. As to the method: Human LAG-3 expressing EL4 cells were incubated with either IMP731, H5L7 or H5L7BW Alexa647-conjugated antibodies at varying concentrations of up to 50 μg/ml for 30 minutes at room temperature. Cells were washed with FACS buffer (PBS+0.5% BSA) to remove unbound antibody.
as §3
A general note: In flow cytometry, cells or beads pass a laser one at a time.
As to B1, the IC50 came out at 16.9 ng/mL.
With B2, the IC50 was found to be 14.2 ng/mL.
With B3, the IC50 was determined as 13 ng/mL.

One may read the koff as the rate constant with which the complex falls apart. The Kd is the free concentration of one partner at which half of the binding sites on the other are occupied at equilibrium, for simple one-to-one binding. For orientation: IC50 means the concentration at which inhibition is half-maximal. High values mean a need for much substance, low ones inhibition by little substance.

These data come from patent publication US20160017037A1 (GlaxoSmithKline, published 2016).
